Test results reported in the supplement of paper PMC10126150.
± gives the standard deviation of the averaged measurements.

Test system: ATP
Test: switch fluorescence ratio, 500 uM ATP over buffer (Cy3 cluster intensity, sum of 5 cycles each) (fold (ratio)); higher = stronger signal-on switching upon ATP binding; sequences stand for … in TCGTCGGCAGCGTCAGATGTGTATAAGAGACAGTTTTTTTTTTTTTTTTTTTTTTTTT…TC
Conditions: aptamer strand: ATP DNA aptamer (quencher-CACCTGGGGGAGTATTGCGGAGGAAGG + anchor), 100 nM annealed; ATP concentration: 500 uM
How it was run: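 Switching-strand clusters labelled with Cy3 on a modified Illumina MiSeq flow-cell were annealed to 100 nM quencher-labelled ATP aptamer, imaged in selection buffer, and re-imaged after 15 min with 500 uM ATP at 22 °C. This was done over five cycles with NaOH stripping and re-annealing in between. The fluorescence ratio is summed target-cycle over summed buffer-cycle Cy3 intensity per cluster, averaged per switch-domain sequence, excluding clusters outside 100-1000 RFU.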
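Further: ATP exposure 15 min at 22 °C before imaging.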

| Sequence | switch fluorescence ratio |
| --- | --- |
| ATTCAGTAAA | 1 ± 0.022 |
| ATTCAGTTGC | 1.08 ± 0.072 |
| ATTCATTCAG | 0.9865 ± 0.0047 |
| ATTCATTTTG | 1.019 ± 0.0048 |
| ATTCCAAGGA | 0.9853 ± 0.0019 |
| ATTCCAGACG | 1.01 ± 0.024 |
| ATTCCGGGGA | 1.23 ± 0.29 |
| ATTCCGGTGG | 0.989 ± 0.052 |
| ATTCCTCTGG | 1.2 ± 0.018 |
| ATTCGAAGGT | 1.004 ± 0.0044 |
| ATTCGAGAAG | 0.997 ± 0.018 |
| ATTCGAGTGT | 0.984 ± 0.018 |
| ATTCGCTTCT | 1.02 ± 0.013 |
| ATTCGGCGGA | 1.03 ± 0.068 |
| ATTCGGGGG | 0.927 ± 0.064 |
| ATTCGGGTTT | 1.05 ± 0.066 |
| ATTCGTAGTG | 1.004 ± 0.0016 |
| ATTCGTCATA | 1.04 ± 0.075 |
| ATTCGTTACT | 1.03 ± 0.051 |
| ATTCGTTTCT | 0.97 ± 0.013 |
| ATTCGTTTTC | 1.02 ± 0.024 |
| ATTCTATCGT | 1.01 ± 0.015 |
| ATTCTCATTG | 0.982 ± 0.038 |
| ATTCTGGTGC | 1.12 ± 0.025 |
| ATTCTTATTT | 0.998 ± 0.028 |

| Sequence | switch fluorescence ratio |
| --- | --- |
| ATTCTTTGG | 0.9676 ± 0.0024 |
| ATTGAAAGAG | 1.21 ± 0.28 |
| ATTGAAAGGC | 1.29 ± 0.42 |
| ATTGAAATTT | 1.05 ± 0.093 |
| ATTGAACGGG | 1.02 ± 0.016 |
| ATTGACTTTT | 1 ± 0.025 |
| ATTGAGATGC | 0.938 ± 0.014 |
| ATTGAGCCAG | 1.03 ± 0.023 |
| ATTGAGGAGG | 1.02 ± 0.023 |
| ATTGATACTA | 1.03 ± 0.021 |
| ATTGATATCC | 0.987 ± 0.043 |
| ATTGATGTTT | 1.01 ± 0.024 |
| ATTGATTGCG | 0.989 ± 0.013 |
| ATTGCAATGT | 1.036 ± 0.0055 |
| ATTGCCCGTC | 0.992 ± 0.038 |
| ATTGCGGTTT | 0.991 ± 0.032 |
| ATTGCTCTTT | 1.0037 ± 0.00058 |
| ATTGCTTTTT | 0.9834 ± 0.0066 |
| ATTGGAACGC | 1.03 ± 0.012 |
| ATTGGACTAC | 1.07 ± 0.03 |
| ATTGGAGTTA | 0.999 ± 0.012 |
| ATTGGATTCA | 1.022 ± 0.0023 |
| ATTGGCAGTG | 1 ± 0.021 |
| ATTGGCATCT | 0.9925 ± 0.0079 |
| ATTGGCCATC | 0.997 ± 0.0048 |

| Sequence | switch fluorescence ratio |
| --- | --- |
| ATTGGCCCAT | 0.9642 ± 0.0017 |
| ATTGGCCGCC | 0.991 ± 0.042 |
| ATTGGGAATA | 0.986 ± 0.029 |
| ATTGGGAGTA | 0.988 ± 0.0099 |
| ATTGGGATCC | 1.02 ± 0.029 |
| ATTGGGCAAT | 1.054 ± 0.0023 |
| ATTGGGCTGT | 0.993 ± 0.016 |
| ATTGGGTGTG | 0.987 ± 0.027 |
| ATTGGGTTGG | 0.998 ± 0.019 |
| ATTGGTGCGT | 1.0357 ± 0.0007 |
| ATTGGTGGGG | 0.982 ± 0.033 |
| ATTGTAAAGC | 0.9935 ± 0.0083 |
| ATTGTAGGAG | 0.9966 ± 0.0058 |
| ATTGTCGACT | 0.9681 ± 0.0045 |
| ATTGTCGGCT | 1.05 ± 0.18 |
| ATTGTGAAAT | 0.999 ± 0.0025 |
| ATTGTGCAGG | 0.998 ± 0.0025 |
| ATTGTGCCTG | 1.083 ± 0.0093 |
| ATTGTGCGGC | 1.01 ± 0.027 |
| ATTGTGGGGA | 0.985 ± 0.048 |
| ATTGTGTTCC | 1.05 ± 0.0057 |
| ATTGTTAATG | 0.98 ± 0.046 |
| ATTGTTATCT | 1 ± 0.013 |
| ATTGTTCCGT | 1.02 ± 0.021 |
| ATTGTTGGTG | 0.986 ± 0.024 |

| Sequence | switch fluorescence ratio |
| --- | --- |
| ATTGTTGGTT | 0.974 ± 0.019 |
| ATTGTTGTGT | 0.9992 ± 0.0099 |
| ATTGTTTCAG | 0.976 ± 0.02 |
| ATTGTTTGCG | 0.966 ± 0.035 |
| ATTGTTTGTC | 0.996 ± 0.064 |
| ATTTAAATTG | 1.02 ± 0.052 |
| ATTTAAGAAT | 1.022 ± 0.0061 |
| ATTTAAGGAC | 1.04 ± 0.032 |
| ATTTAATAAT | 0.985 ± 0.018 |
| ATTTACACGC | 1.02 ± 0.02 |
| ATTTACCAGG | 1.18 ± 0.26 |
| ATTTACTAGA | 1.004 ± 0.0042 |
| ATTTACTTCT | 1.04 ± 0.015 |
| ATTTAGACTT | 1.039 ± 0.01 |
| ATTTAGAGGT | 0.965 ± 0.043 |
| ATTTAGCCTA | 0.9758 ± 0.0079 |
| ATTTAGGTCA | 0.983 ± 0.011 |
| ATTTAGTACA | 0.973 ± 0.011 |
| ATTTAGTCGA | 0.9519 ± 0.001 |
| ATTTAGTTGT | 1.03 ± 0.03 |
| ATTTATACGC | 1.06 ± 0.038 |
| ATTTATACGG | 1.02 ± 0.015 |
| ATTTATATTG | 0.989 ± 0.05 |
| ATTTATGATA | 0.99 ± 0.008 |
| ATTTATGGTG | 0.973 ± 0.031 |

| Sequence | switch fluorescence ratio |
| --- | --- |
| ATTTATGTGG | 0.998 ± 0.02 |
| ATTTATGTTC | 0.994 ± 0.033 |
| ATTTATTTTA | 1.01 ± 0.012 |
| ATTTCAATTA | 1.01 ± 0.065 |
| ATTTCACAAT | 0.9798 ± 0.0028 |
| ATTTCAGTCT | 0.977 ± 0.051 |
| ATTTCATGG | 0.97 ± 0.057 |
| ATTTCCCGAT | 0.979 ± 0.012 |
| ATTTCTAGGA | 0.987 ± 0.015 |
| ATTTCTATCC | 1.09 ± 0.12 |
| ATTTCTGGGT | 0.9885 ± 0.0082 |
| ATTTCTTGG | 0.958 ± 0.031 |
| ATTTGAAGTT | 0.975 ± 0.043 |
| ATTTGACGGG | 1.03 ± 0.047 |
| ATTTGACTTT | 1.04 ± 0.031 |
| ATTTGAGTGC | 0.966 ± 0.002 |
| ATTTGAGTTA | 1 ± 0.056 |
| ATTTGCGGGC | 1.07 ± 0.11 |
| ATTTGGATGG | 0.985 ± 0.023 |
| ATTTGGCTGG | 0.986 ± 0.015 |
| ATTTGGGCCA | 1.02 ± 0.022 |
| ATTTGGGGTC | 0.9644 ± 0.0056 |
| ATTTGGGGTT | 0.997 ± 0.031 |
| ATTTGGTAGG | 1 ± 0.012 |
| ATTTGGTGAG | 0.983 ± 0.03 |

| Sequence | switch fluorescence ratio |
| --- | --- |
| ATTTGGTGCG | 1.01 ± 0.036 |
| ATTTGGTGTA | 0.968 ± 0.0098 |
| ATTTGTAAGC | 0.9909 ± 0.0068 |
| ATTTGTATGC | 1 ± 0.051 |
| ATTTGTGGAC | 0.973 ± 0.037 |
| ATTTGTGGGG | 1.01 ± 0.065 |
| ATTTGTGGTG | 1.01 ± 0.023 |
| ATTTGTGTA | 0.992 ± 0.012 |
| ATTTGTGTGT | 0.967 ± 0.036 |
| ATTTGTGTTT | 0.9931 ± 0.0027 |
| ATTTTAATAT | 0.987 ± 0.03 |
| ATTTTACACC | 1.07 ± 0.013 |
| ATTTTACGTA | 1.143 ± 0.0025 |
| ATTTTACGTG | 1 ± 0.016 |
| ATTTTACTAA | 1.05 ± 0.021 |
| ATTTTAGGCA | 0.996 ± 0.039 |
| ATTTTAGGCC | 1.1 ± 0.06 |
| ATTTTAGTTA | 1 ± 0.038 |
| ATTTTATCAG | 1.02 ± 0.018 |
| ATTTTATTAC | 1.04 ± 0.028 |
| ATTTTCACAG | 1.03 ± 0.077 |
| ATTTTCAGAT | 1.003 ± 0.0045 |
| ATTTTCAGGG | 0.998 ± 0.067 |
| ATTTTCGGTG | 1.01 ± 0.024 |
| ATTTTGTAAT | 1 ± 0.019 |

| Sequence | switch fluorescence ratio |
| --- | --- |
| ATTTTGTGAG | 0.969 ± 0.031 |
| ATTTTGTGTA | 1.005 ± 0.004 |
| ATTTTGTGTG | 0.989 ± 0.011 |
| ATTTTGTTCT | 0.993 ± 0.031 |
| ATTTTGTTGG | 1.11 ± 0.2 |
| ATTTTTAGT | 1 ± 0.016 |
| ATTTTTATTC | 0.991 ± 0.03 |
| ATTTTTCCCG | 1.07 ± 0.059 |
| ATTTTTCGAT | 1 ± 0.026 |
| ATTTTTCTCG | 0.96 ± 0.041 |
| ATTTTTGGG | 1.03 ± 0.035 |
| ATTTTTGGTG | 1.06 ± 0.064 |
| ATTTTTTGGG | 0.9597 ± 0.0069 |
| ATTTTTTTCT | 1.04 ± 0.04 |
| ATTTTTTTGT | 1 ± 0.026 |
| CAAAAAAAAG | 1.03 ± 0.023 |
| CAAAAAATTA | 1.01 ± 0.031 |
| CAAAAAGCGT | 0.9786 ± 0.0056 |
| CAAAAAGTTG | 1.02 ± 0.093 |
| CAAAAATTGG | 1 ± 0.041 |
| CAAAAGAGTG | 0.999 ± 0.018 |
| CAAAAGCCTA | 0.974 ± 0.053 |
| CAAAAGGGGA | 0.984 ± 0.04 |
| CAAAAGTTGT | 0.992 ± 0.043 |
| CAAAATATAT | 1.06 ± 0.042 |

| Sequence | switch fluorescence ratio |
| --- | --- |
| CAAAATTGCA | 1.02 ± 0.016 |
| CAAAATTTGC | 0.9841 ± 0.0061 |
| CAAACGGGGG | 0.983 ± 0.042 |
| CAAACGGGGT | 1.01 ± 0.024 |
| CAAACTGGCA | 1.05 ± 0.045 |
| CAAAGACACA | 0.985 ± 0.012 |
| CAAAGGCGGA | 0.991 ± 0.014 |
| CAAAGGGGCA | 1.046 ± 0.0052 |
| CAAAGGGGGA | 1 ± 0.033 |
| CAAAGGGGGG | 1.13 ± 0.38 |
| CAAAGTAGGG | 0.991 ± 0.032 |
| CAAAGTGGTG | 0.97 ± 0.053 |
| CAAATAAATT | 0.989 ± 0.029 |
| CAAATCGTTG | 0.9786 ± 0.0024 |
| CAAATGAAAG | 1.004 ± 0.0058 |
| CAAATGATTT | 0.985 ± 0.021 |
| CAAATGTCAA | 0.987 ± 0.015 |
| CAAATGTTTG | 0.998 ± 0.02 |
| CAAATTAGGG | 0.971 ± 0.036 |
| CAAATTGCAG | 0.967 ± 0.026 |
| CAACACGGCA | 1.11 ± 0.026 |
| CAACCGCGTA | 2.36 ± 0.1 |
| CAACCGGGAA | 1.1 ± 0.021 |
| CAACCTGCGA | 1.4175 ± 0.0011 |
| CAACGCATTT | 2.36 ± 0.44 |
